In article PMC10020564, “Distinct inter-domain interactions of dimeric versus monomeric α-catenin link cell junctions to filaments” (Communications Biology, 2023):

B1: human α-catenin Δ1–81 (domain or fragment, UniProt P35221 82-906, looked up)
chain: ESQFLKEELVAAVEDVRKQGDLMKAAAGEFADDPCSSVKRGNMVRAARALLSAVTRLLILADMADVYKLLVQLKVVEDGILKLRNAGNEQDLGIQYKALKPEVDKLNIMAAKRQQELKDVGHRDQMAAARGILQKNVPILYTASQACLQHPDVAAYKANRDLIYKQLQQAVTGISNAAQATASDDASQHQGGGGGELAYALNNFDKQIIVDPLSFSEERFRPSLEERLESIISGAALMADSSCTRDDRRERIVAECNAVRQALQDLLSEYMGNAGRKERSDALNSAIDKMTKKTRDLRRQLRKAVMDHVSDSFLETNVPLLVLIEAAKNGNEKEVKEYAQVFREHANKLIEVANLACSISNNEEGVKLVRMSASQLEALCPQVINAALALAAKPQSKLAQENMDLFKEQWEKQVRVLTDAVDDITSIDDFLAVSENHILEDVNKCVIALQEKDVDGLDRTAGAIRGRAARVIHVVTSEMDNYEPGVYTEKVLEATKLLSNTVMPRFTEQVEAAVEALSSDPAQPMDENEFIDASRLVYDGIRDIRKAVLMIRTPEELDDSDFETEDFDVRSRTSVQTEDDQLIAGQSARAIMAQLPQEQKAKIAEQVASFQEEKSKLDAEVSKWDDSGNDIIVLAKQMCMIMMEMTDFTRGKGPLKNTSDVISAAKKIAEAGSRMDKLGRTIADHCPDSACKQDLLAYLQRIALYCHQLNICSKVKAEVQNLGGELVVSGVDSAMSLIQAAKNLMNAVVQTVKASYVASTKYQKSQGMASLNLPAVSWKMKAPEKKPLVKREKQDETQTKIKRASQKKHVNPVQALSEFKAMDSI
notes: also called human dimeric α-catenin Δ1–81; human monomeric α-catenin Δ1–81; source: E. coli BL21(DE3) (said of all α-catenin constructs)
B2: full-length human α-catenin (residues 1–906) (natural protein, UniProt P35221 1-906, looked up)
chain: MTAVHAGNINFKWDPKSLEIRTLAVERLLEPLVTQVTTLVNTNSKGPSNKKRGRSKKAHVLAASVEQATENFLEKGDKIAKESQFLKEELVAAVEDVRKQGDLMKAAAGEFADDPCSSVKRGNMVRAARALLSAVTRLLILADMADVYKLLVQLKVVEDGILKLRNAGNEQDLGIQYKALKPEVDKLNIMAAKRQQELKDVGHRDQMAAARGILQKNVPILYTASQACLQHPDVAAYKANRDLIYKQLQQAVTGISNAAQATASDDASQHQGGGGGELAYALNNFDKQIIVDPLSFSEERFRPSLEERLESIISGAALMADSSCTRDDRRERIVAECNAVRQALQDLLSEYMGNAGRKERSDALNSAIDKMTKKTRDLRRQLRKAVMDHVSDSFLETNVPLLVLIEAAKNGNEKEVKEYAQVFREHANKLIEVANLACSISNNEEGVKLVRMSASQLEALCPQVINAALALAAKPQSKLAQENMDLFKEQWEKQVRVLTDAVDDITSIDDFLAVSENHILEDVNKCVIALQEKDVDGLDRTAGAIRGRAARVIHVVTSEMDNYEPGVYTEKVLEATKLLSNTVMPRFTEQVEAAVEALSSDPAQPMDENEFIDASRLVYDGIRDIRKAVLMIRTPEELDDSDFETEDFDVRSRTSVQTEDDQLIAGQSARAIMAQLPQEQKAKIAEQVASFQEEKSKLDAEVSKWDDSGNDIIVLAKQMCMIMMEMTDFTRGKGPLKNTSDVISAAKKIAEAGSRMDKLGRTIADHCPDSACKQDLLAYLQRIALYCHQLNICSKVKAEVQNLGGELVVSGVDSAMSLIQAAKNLMNAVVQTVKASYVASTKYQKSQGMASLNLPAVSWKMKAPEKKPLVKREKQDETQTKIKRASQKKHVNPVQALSEFKAMDSI
notes: Cloned into pGEX-6P-1; residues of the PreScission site may remain at the N-terminus after cleavage; The same protein elutes as a monomer peak and a dimer peak, which were pooled separately; also called human monomeric α-catenin; human dimeric α-catenin; source: E. coli BL21(DE3), purified (GST Sepharose, PreScission cleavage, Superdex S200; monomer and dimer peaks pooled separately); not shown: …
B3: human α-catenin (residues 22–906) (domain or fragment, UniProt P35221 22-906, looked up)
chain: TLAVERLLEPLVTQVTTLVNTNSKGPSNKKRGRSKKAHVLAASVEQATENFLEKGDKIAKESQFLKEELVAAVEDVRKQGDLMKAAAGEFADDPCSSVKRGNMVRAARALLSAVTRLLILADMADVYKLLVQLKVVEDGILKLRNAGNEQDLGIQYKALKPEVDKLNIMAAKRQQELKDVGHRDQMAAARGILQKNVPILYTASQACLQHPDVAAYKANRDLIYKQLQQAVTGISNAAQATASDDASQHQGGGGGELAYALNNFDKQIIVDPLSFSEERFRPSLEERLESIISGAALMADSSCTRDDRRERIVAECNAVRQALQDLLSEYMGNAGRKERSDALNSAIDKMTKKTRDLRRQLRKAVMDHVSDSFLETNVPLLVLIEAAKNGNEKEVKEYAQVFREHANKLIEVANLACSISNNEEGVKLVRMSASQLEALCPQVINAALALAAKPQSKLAQENMDLFKEQWEKQVRVLTDAVDDITSIDDFLAVSENHILEDVNKCVIALQEKDVDGLDRTAGAIRGRAARVIHVVTSEMDNYEPGVYTEKVLEATKLLSNTVMPRFTEQVEAAVEALSSDPAQPMDENEFIDASRLVYDGIRDIRKAVLMIRTPEELDDSDFETEDFDVRSRTSVQTEDDQLIAGQSARAIMAQLPQEQKAKIAEQVASFQEEKSKLDAEVSKWDDSGNDIIVLAKQMCMIMMEMTDFTRGKGPLKNTSDVISAAKKIAEAGSRMDKLGRTIADHCPDSACKQDLLAYLQRIALYCHQLNICSKVKAEVQNLGGELVVSGVDSAMSLIQAAKNLMNAVVQTVKASYVASTKYQKSQGMASLNLPAVSWKMKAPEKKPLVKREKQDETQTKIKRASQKKHVNPVQALSEFKAMDSI
notes: Modified pET28 vector; By the printed forward primer the residues GPHM would remain before T22 after PreScission cleavage (surmise); The dimer was used for the complex with F-actin; in the map only residues 710–871 are ordered; also called Δ1–21 α-catenin; human dimeric α-catenin Δ1–21; source: E. coli BL21(DE3), purified (HisTrap, PreScission cleavage, reverse HisTrap, Superdex S200); not shown: …

Molecular target: the molecule itself
Assay: SEC-MALS; separately pooled dimer peak of a size exclusion run; Superdex S200 10/300 GL, 20 mM Tris-HCl pH 8, 150 mM NaCl, 0.2 mM TCEP, 0.5 ml/min

| Protein | stoichiometry N |
| --- | --- |
| B1 | 2 |
| B2 | 2 |
| B3 | 2 |
